# Target: E4F1 (UniProt Q66K89)
# Test: co-IP, immunoblot
# Conditions: reference: PA28γ wild type; sites T23
substance,measurement,value
PA28γ (from UniProt P61289) T23A,binding against the reference,weaker
